Here are results for 43 variants from the Human Domainome abundance scans (Beltran et al. 2025).

B1: Ras GTPase-activating protein 1, residues 281 to 341; numbered along this chain, P20936 (parent)
chain: RRRVRAILPYTKVPDTDEISFLKGDMFIVHNELEDGWMWVTNLRTDEQGLIVEDLVEEVGR

± gives the uncertainty stated by the source.

The variants in this data set derive from B1. Description: abundance fitness (aPCA) (normalised: wild type 0, dead -1); higher = more abundant; growth selection in yeast, the domain comes from the species named. The note with it: Homo sapiens.
Turning to RRRVRAILPYTKPPDTDEISFLKGDMFIVHNELEDGWMWVTNLRTDEQGLIVEDLVEEVGR, the abundance fitness is -0.34 ± 0.042.

Take RRRVRAILPYTKHPDTDEISFLKGDMFIVHNELEDGWMWVTNLRTDEQGLIVEDLVEEVGR: the abundance fitness turned out to be 0.012 ± 0.03.

With RRRVRAILPYTKCPDTDEISFLKGDMFIVHNELEDGWMWVTNLRTDEQGLIVEDLVEEVGR, the abundance fitness is 0.015 ± 0.028. In the case of RRRVRAILPYTKRPDTDEISFLKGDMFIVHNELEDGWMWVTNLRTDEQGLIVEDLVEEVGR, the abundance fitness is 0.071 ± 0.03. Turning to RRRVRAILPYTKEPDTDEISFLKGDMFIVHNELEDGWMWVTNLRTDEQGLIVEDLVEEVGR, the abundance fitness is 0.019 ± 0.047.

For the variant RRRVRAILPYTKKPDTDEISFLKGDMFIVHNELEDGWMWVTNLRTDEQGLIVEDLVEEVGR, the abundance fitness worked out at 0.02 ± 0.072. Regarding RRRVRAILPYTKAPDTDEISFLKGDMFIVHNELEDGWMWVTNLRTDEQGLIVEDLVEEVGR, the abundance fitness came out at 0.018 ± 0.036.

Regarding RRRVRAILPYTKGPDTDEISFLKGDMFIVHNELEDGWMWVTNLRTDEQGLIVEDLVEEVGR, the abundance fitness was -0.04 ± 0.025. Regarding RRRVRAILPYTKFPDTDEISFLKGDMFIVHNELEDGWMWVTNLRTDEQGLIVEDLVEEVGR, the abundance fitness is -0.185 ± 0.027. As for RRRVRAILPYTKNPDTDEISFLKGDMFIVHNELEDGWMWVTNLRTDEQGLIVEDLVEEVGR, the abundance fitness was 0.058 ± 0.031. Next, RRRVRAILPYTKSPDTDEISFLKGDMFIVHNELEDGWMWVTNLRTDEQGLIVEDLVEEVGR: -0.015 ± 0.025; RRRVRAILPYTKIPDTDEISFLKGDMFIVHNELEDGWMWVTNLRTDEQGLIVEDLVEEVGR: -0.019 ± 0.029; RRRVRAILPYTKDPDTDEISFLKGDMFIVHNELEDGWMWVTNLRTDEQGLIVEDLVEEVGR: -0.047 ± 0.033. On to RRRVRAILPYTKTPDTDEISFLKGDMFIVHNELEDGWMWVTNLRTDEQGLIVEDLVEEVGR, for which the abundance fitness worked out at 0.084 ± 0.03. Next, RRRVRAILPYTKMPDTDEISFLKGDMFIVHNELEDGWMWVTNLRTDEQGLIVEDLVEEVGR: -0.013 ± 0.073; RRRVRAILPYTKQPDTDEISFLKGDMFIVHNELEDGWMWVTNLRTDEQGLIVEDLVEEVGR: 0.025 ± 0.046. The result for RRRVRAILPYTKLPDTDEISFLKGDMFIVHNELEDGWMWVTNLRTDEQGLIVEDLVEEVGR reads -0.053 ± 0.029. Take RRRVRAILPYFKVPDTDEISFLKGDMFIVHNELEDGWMWVTNLRTDEQGLIVEDLVEEVGR: the abundance fitness was -0.184 ± 0.026.

RRRVRAILPYPKVPDTDEISFLKGDMFIVHNELEDGWMWVTNLRTDEQGLIVEDLVEEVGR: the abundance fitness is -0.696 ± 0.051. The result for RRRVRAILPYIKVPDTDEISFLKGDMFIVHNELEDGWMWVTNLRTDEQGLIVEDLVEEVGR reads -0.055 ± 0.028.

RRRVRAILPYRKVPDTDEISFLKGDMFIVHNELEDGWMWVTNLRTDEQGLIVEDLVEEVGR: the abundance fitness was -0.126 ± 0.028. The result for RRRVRAILPYAKVPDTDEISFLKGDMFIVHNELEDGWMWVTNLRTDEQGLIVEDLVEEVGR reads -0.05 ± 0.035. On to RRRVRAILPYEKVPDTDEISFLKGDMFIVHNELEDGWMWVTNLRTDEQGLIVEDLVEEVGR, for which the abundance fitness was -0.108 ± 0.089. The result for RRRVRAILPYQKVPDTDEISFLKGDMFIVHNELEDGWMWVTNLRTDEQGLIVEDLVEEVGR reads -0.097 ± 0.084; that for RRRVRAILPYKKVPDTDEISFLKGDMFIVHNELEDGWMWVTNLRTDEQGLIVEDLVEEVGR, -0.13 ± 0.067; that for RRRVRAILPYYKVPDTDEISFLKGDMFIVHNELEDGWMWVTNLRTDEQGLIVEDLVEEVGR, -0.278 ± 0.029. Next, RRRVRAILPYNKVPDTDEISFLKGDMFIVHNELEDGWMWVTNLRTDEQGLIVEDLVEEVGR: -0.026 ± 0.029; RRRVRAILPYCKVPDTDEISFLKGDMFIVHNELEDGWMWVTNLRTDEQGLIVEDLVEEVGR: -0.028 ± 0.028.

Consider RRRVRAILPYLKVPDTDEISFLKGDMFIVHNELEDGWMWVTNLRTDEQGLIVEDLVEEVGR, for which the abundance fitness is -0.169 ± 0.028. On to RRRVRAILPYDKVPDTDEISFLKGDMFIVHNELEDGWMWVTNLRTDEQGLIVEDLVEEVGR, for which the abundance fitness came to 0.016 ± 0.034. Next, RRRVRAILPYSKVPDTDEISFLKGDMFIVHNELEDGWMWVTNLRTDEQGLIVEDLVEEVGR: -0.05 ± 0.024; RRRVRAILPYGKVPDTDEISFLKGDMFIVHNELEDGWMWVTNLRTDEQGLIVEDLVEEVGR: -0.416 ± 0.033.

RRRVRAILPYWKVPDTDEISFLKGDMFIVHNELEDGWMWVTNLRTDEQGLIVEDLVEEVGR: the abundance fitness is -0.213 ± 0.049. As for RRRVRAILPYHKVPDTDEISFLKGDMFIVHNELEDGWMWVTNLRTDEQGLIVEDLVEEVGR, the abundance fitness is -0.129 ± 0.031.

Turning to RRRVRAILPYVKVPDTDEISFLKGDMFIVHNELEDGWMWVTNLRTDEQGLIVEDLVEEVGR, the abundance fitness amounted to 0.017 ± 0.029. Consider RRRVRAIWPYTKVPDTDEISFLKGDMFIVHNELEDGWMWVTNLRTDEQGLIVEDLVEEVGR, for which the abundance fitness was -0.194 ± 0.043. RRRVRAIYPYTKVPDTDEISFLKGDMFIVHNELEDGWMWVTNLRTDEQGLIVEDLVEEVGR: the abundance fitness was -0.084 ± 0.026. For RRRVRAILPYTCVPDTDEISFLKGDMFIVHNELEDGWMWVTNLRTDEQGLIVEDLVEEVGR, the abundance fitness was -0.101 ± 0.029.

Consider RRRVRAILPYTPVPDTDEISFLKGDMFIVHNELEDGWMWVTNLRTDEQGLIVEDLVEEVGR, for which the abundance fitness was -0.102 ± 0.037. The result for RRRVRAILPYTLVPDTDEISFLKGDMFIVHNELEDGWMWVTNLRTDEQGLIVEDLVEEVGR reads -0.779 ± 0.041; that for RRRVRAILPYTAVPDTDEISFLKGDMFIVHNELEDGWMWVTNLRTDEQGLIVEDLVEEVGR, -0.029 ± 0.032; that for RRRVRAILPYTYVPDTDEISFLKGDMFIVHNELEDGWMWVTNLRTDEQGLIVEDLVEEVGR, -0.824 ± 0.044.

As to RRRVRAILPYTVVPDTDEISFLKGDMFIVHNELEDGWMWVTNLRTDEQGLIVEDLVEEVGR, the abundance fitness is -0.788 ± 0.047.
